Earlier results in publication PMC3089900.

Target: His276 (UniProt position 276, SEELDHALNDM)
Assay: NMR
Conditions: in the presence of troponin T fragment TnT1

alpha-tropomyosin (striated muscle alpha-Tm) (Oryctolagus cuniculus (inferred; the article's alpha-Tm sequence discussion and preparations are rabbit))
pKa: 7.27−7.98
